Numbering of substitutions follows the chain as printed. Names and notes keep the numbering of the source.
B1: Rap80 (WT): His6-tagged human Rap80 tandem UIM peptide, linker REVNSQE, fluorescein-labeled on C121; sequence in Table 1 (protein)
peptide: PSSHHHHHHSSGLVPRGSHMTEEEQFALALKMSEQEAREVNSQEEEEEELLRKAIAESLNSC(fluorescein)RPS
B2: Vps27 (WT): yeast Vps27 tandem UIM peptide with unstructured 25-residue linker (protein)
peptide: PSSHHHHHHSSGLVPRGSHMDRDYSTPEDEEELIRKAIELSLKESRNSASSEPIVPVVESKNEVKRQEIEEEEDPDLKAAIQESLREAEEAKLRSERQKAC
B3: Rap80 7A linker: Rap80 UIMs linked by 7 alanine residues (protein)
peptide: PSSHHHHHHSSGLVPRGSHMTEEEQFALALKMSEQEAAAAAAAAEEEEELLRKAIAESLNSCRPS
B4: unlabeled Rap80 tUIM peptide: unlabeled version of the fluorescent Rap80 tUIM peptide (protein)
peptide: B3 peptide with A38R, A39E, A40V, A41N, A42S, A43Q, A44E
B5: Rap80 (residues 1-233): N-terminal 233 residues of Rap80, fluorescently labeled on the same UIM cysteine (protein)
chain: MPRRKKKVKEVSESRNLEKKDVETTSSVSVKRKRRLEDAFIVISDSDGEEPKEENGLQKTKTKQSNRAKSLAKRKIAQMTEEEQFALALKMSEQEAREVNSQEEEEEELLRKAIAESLNSCRPSDASATRSRPLATGPSSQSHQEKTTDSGLTEGIWQLVPPSLFKGSHISQGNEAEEREEPWDHTEKTEEEPVSGSSGSWDQSSQPVFENVNVKSFDRSTGHSAEHTQSGKP
B6: Vps27 7aa linker: Vps27 UIMs connected with 7-residue linker RAEEKVK (protein)
peptide: PSSHHHHHHSSGLVPRGSHMEEEEDPDLKAAIQESLREARAEEKVKEDEEELIRKAIELSLKESRNCA
B7: Rap80 6aa linker: Rap80 tUIM peptide with 6-residue linker REVAAE (protein)
peptide: PSSHHHHHHSSGLVPRGSHMTEEEQFALALKMSEQEAREVAAEEEEEELLRKAIAESLNSCRPS
B8: Rap80 S101E: Rap80 tUIM peptide, linker REVNEQE (protein)
peptide: B3 peptide with A38R, A39E, A40V, A41N, A42E, A43Q, A44E
B9: Rap80 S101A: Rap80 tUIM peptide, linker REVNAQE (protein)
peptide: B3 peptide with A38R, A39E, A40V, A41N, A43Q, A44E
B10: Rap80 DLKAAIQ: Rap80 tUIM peptide, linker DLKAAIQ (protein)
peptide: B3 peptide with A38D, A39L, A40K, A43I, A44Q
B11: Rap80 ARLEEKV: Rap80 tUIM peptide, linker ARLEEKV (protein)
peptide: B3 peptide with A39R, A40L, A41E, A42E, A43K, A44V
B12: ataxin-3 Rap80 linker: ataxin-3 UIMs spliced together with the Rap80 linker REVNSQE (protein)
peptide: PSSHHHHHHSSGLVPRGSHMDEDEEDLQRALALSRQEIREVNSQEEDEEADLRRAIQLSMQGSSRNC
B13: ataxin-3 7A linker: ataxin-3 UIMs joined by a 7-alanine linker (protein)
peptide: B12 peptide with R39A, E40A, V41A, N42A, S43A, Q44A, E45A
B14: Rap80 2 x linker: Rap80 tUIM peptide with 14-residue linker REVNSQEREVNSQE (protein)
peptide: PSSHHHHHHSSGLVPRGSHMTEEEQFALALKMSEQEAREVNSQEREVNSQEEEEEELLRKAIAESLNSCRPS

Legend:
K48-Ub4 = assay: Fluorescence anisotropy binding of fluorescent tUIM peptides to K48-Ub4
Excerpt: (§1) Fluorescent Labeling. Rap80 tUIM peptides were fluorescently-labeled on the sulfhydryl group of C121 (see FIG. 1). For longer Rap80 constructs, all cysteines except C121 were mutated to serine for site-specific labeling. Ataxin-3 and Vps27 UIM peptides were labeled on a single cysteine introduced at the C-terminus. Fluorescein-5-maleimide (Pierce) was coupled to cysteines following the manufacturer's instructions. After desalting through Sephadex G-25 resin, fluorescein-labeled tUIM peptides were separated from unlabeled peptides by anion-exchange chromatography (MonoQ column, GE Biosciences) by elution with a NaCl gradient in 50 mM Tris buffer, pH 7.9. The labeled peptides were essentially 100% pure by SDS-PAGE and Coomassie blue staining, and MALDI-TOF mass spectrometry confirmed the addition of a single fluorescein moiety. Fluorescence Anisotropy Binding Assays. Fluorescence anisotropy measurements were made using a Fluoromax 4 fluorometer in L format, thermostatted at 25° C. Excitation and emission monochromators were set at 492 nm and 520 nm, respectively. Slit widths were 3 nm for diUb-binding assays ([…]) or 6 nm for tetraUb-binding assays ([…]). Anisotropies were calculated by the instrument software, and the overall intensity of the fluorescence signal was monitored at each point with the polarizers oriented at the magic angle. All measurements were made in fluorescence buffer (25 mM Na phosphate [pH 7.4], 150 mM NaCl, 5 mM β-mercaptoethanol, 1 mM EDTA, and either 0.005% surfactant P20 (BIACORE) or 0.05% Brij35). Concentrations of the fluorescent proteins were calculated using the fluorescein extinction coefficient at 494 nm, 68000 M^-1 cm^-1. (poly)Ub concentrations were assessed by absorbance at 280 nm using the extinction coefficient 0.16 (mg/ml)^-1 cm^-1 ([…] and Raasi, 2005). Fluorescence anisotropy data were fit with a single-site binding model as described (Wilkinson, 2004). The equilibrium constants for wild-type Vps27 peptide binding to K63 and K48 Ub4 were determined by competition with the fluorescent Vps27 7aa linker peptide as described (Wilkinson, 2004).

K63-Ub2 [1] = biological target: T1, K63-Ub2 (Homo sapiens, UniProt P0CG47, K63R); assay: Fluorescence anisotropy binding of fluorescent tUIM peptides to K63-Ub2; details: for Kd: fluorescence anisotropy, single-site fit, 25° C., pH 7.4
T1 construct: Ub and K48- and K63-linked diUb and tetraUb were made as described; made in house
Excerpt: as §1

K63-Ub2 [2] = assay: as above
Excerpt: as §1

[3] = CD measurements of helical content of tUIM peptides; format: physicochemical; details: whole-spectrum interpretation of CD; peptide without vector-derived residues
Experimental: Measurements of 3 samples were collected and are shown in FIG. 2D: (1) 153 μM Rap80 tUIM alone, (2) 153 μM K63-Ub2 alone, and (3) a mixture of 153 μM Rap80 tUIM with 153 μM K63-Ub2. The contribution of Rap80 tUIM to spectrum (3) was sought, so that the helical content of the bound tUIM could be estimated. […] Therefore, the difference between spectrum (3) and spectrum (2) will give the contribution from Rap80 tUIM to the total CD spectrum of the Rap80-K63-Ub2 mixture. (A) The spectrum of unbound Rap80 [spectrum (1)] is shown here as triangles. The contribution of Rap80 to spectrum (3) was calculated as (3)−(2), and is shown here as squares. Because the mixture of Rap80 with K63-Ub2 is not at saturating concentrations, bound and unbound Rap80 are both present in the solution. The observed helical fraction (Hmix) for this complex mixture can be described by:
Where Fbound and Funbound are the fractions of the bound and unbound forms of Rap80 present in the mixture, respectively, and Hbound and Hunbound are the helical contents of the bound and unbound forms of Rap80, respectively. […] (B) Shown here is a summary of the secondary structure predictions from two methods and the corresponding Hbound values calculated as described above. […]
CD Measurements. […] Peptide concentrations were independently determined before each CD reading from absorbance measurements (fluorescein) of samples in the CD cuvette.

K48-Ub2 = biological target: T2, K48-Ub2 (Homo sapiens, UniProt P0CG47, K48R); assay: Fluorescence anisotropy binding of fluorescent tUIM peptides to K48-Ub2; details: single-site fit, 25° C., pH 7.4
T2 construct: Ub and K48- and K63-linked diUb and tetraUb were made as described; made in house
Experimental: Fluorescence Anisotropy Binding Assays. Fluorescence anisotropy measurements were made using a Fluoromax 4 fluorometer in L format, thermostatted at 25° C. Excitation and emission monochromators were set at 492 nm and 520 nm, respectively. Slit widths were 3 nm for diUb-binding assays (1 mM fluorophore) or 6 nm for tetraUb-binding assays (0.1 mM fluorophore). Anisotropies were calculated by the instrument software, and the overall intensity of the fluorescence signal was monitored at each point with the polarizers oriented at the magic angle. All measurements were made in fluorescence buffer (25 mM Na phosphate [pH 7.4], 150 mM NaCl, 5 mM β-mercaptoethanol, 1 mM EDTA, and either 0.005% surfactant P20 (BIACORE) or 0.05% Brij35). Concentrations of the fluorescent proteins were calculated using the fluorescein extinction coefficient at 494 nm, 68000 M^-1 cm^-1. (poly)Ub concentrations were assessed by absorbance at 280 nm using the extinction coefficient 0.16 (mg/ml)^-1 cm^-1 ([…] and Raasi, 2005). Fluorescence anisotropy data were fit with a single-site binding model as described (Wilkinson, 2004).

K63-Ub4 [4] = assay: Fluorescence anisotropy binding of fluorescent tUIM peptides to K63-Ub4
Excerpt: as §1

K63-Ub4 [5] = biological target: T3, K63-Ub4 (Homo sapiens, UniProt P0CG47, K63R); assay: as above
T3 construct: Ub and K48- and K63-linked diUb and tetraUb were made as described; made in house
Excerpt: as §1

[6] = fluorescence anisotropy Kd values
[7] = determined by competition with the fluorescent Vps27 7aa linker peptide
[8] = fluorescence anisotropy, single-site fit, 25° C., pH 7.4

| Molecule | Kd (K63-Ub2 [1]) [µM] | Kd (K48-Ub2) [µM] | other results |
| --- | --- | --- | --- |
| B1 | 21.6 ± 0.8 |  | bound K48-Ub4 tighter than K48-Ub2 (K48-Ub4; [6]): more than 11 times; preference for K63-Ub2 over monoUb (K63-Ub2 [2]; [6]): 24 fold; preference for K63-Ub2 over K48-Ub2 (K63-Ub2 [2]; from Kd values): 7 fold; α-helical content, K63-Ub2-bound form [3]: ~100%; α-helical content, unbound form [3]: 30%-35% |
| B2 | 67 | 211 | Kd (K48-Ub4; [7]): 31 µM; binding of K63-Ub4 versus K48-Ub4 (K63-Ub4 [4]; fluorescence anisotropy): indistinguishably; Kd (K63-Ub4 [5]; [7]): 29 µM |
| B3 | 3.6 | 160 | binds K63-Ub2 more tightly than Rap80 with the wild-type linker (K63-Ub2 [1]; Table 2 Kd values): 6 fold |
| B4 |  |  | Ki (K63-Ub2 [1]; unlabeled peptide titrated against fluorescent Rap80 tUIM peptide at saturating K63-Ub2, read-out: Ki for the binding inhibition): 24 µM |
| B5 |  |  | preference for K63-Ub4 over K48-Ub4 (K63-Ub4 [4]; solution fluorescence anisotropy): 7 fold |
| B6 | 2.2 | 98 | Kd (K48-Ub4; [8]): 6.5 µM; Kd (K63-Ub4 [5]; [8]): 0.62 µM |
| B7 | 87 | 160 |  |
| B8 | 16 | 170 ± 5 |  |
| B9 | 11 | 152 ± 6 |  |
| B10 | 10 | 129 ± 5 |  |
| B11 | 17 | 230 |  |
| B12 | 60 | 160 | Kd (K48-Ub4; [8]): 7.8 µM; Kd (K63-Ub4 [5]; [8]): 11 µM |
| B13 | 17 | 140 | Kd (K48-Ub4; [8]): 9.3 µM |
| B14 | 150 | 170 |  |

Source: patent US20110250613A1, “Arrayed Multiple Ubiquitin Binding Domains as Linkage-specific Polyubiquitin Affinity Reagents” (THE JOHNS HOPKINS UNIVERSITY, priority 2009, published 2011)
